Experimental findings from patent publication US20080311122A1 (AstraZeneca / MedImmune, published 2008) are described below.

Where a chain is given by its changes, count along the chain named. No end group written: not given here.

Test [1] has as its target T1, HMGB1 B-box peptide 108-138 (UniProt P09429 108-138, biotinylated).
T1 peptide (looked up): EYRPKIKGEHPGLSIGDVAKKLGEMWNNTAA
Description: ELISA, biotinylated peptides on avidin plate. The protocol:
(§1) The plate was then blocked with 4% milk powder dissolved in PBS at 37° C. for 1 hour. The blocking solution was removed and replaced with human anti-HMG1 antibodies at various concentrations (see FIGS. 5A-B). […] HRP activity was detected with Sureblue HRP substrate (KPL). Plates were read at 450 nm using a Kinetic Microplate Reader (Molecular Devices). […] After washing and blocking with 1% BSA in PBS, the biotinylated peptides were individually added into the avidin coated wells and incubated for 30 min at room temperature. The serial diluted antibody G4, S16 and S6 at the initial concentration at 10 μg/ml were then transferred into the wells followed by adding mouse anti human IgG-HRP conjugate (Pierce). Detection was accomplished by adding 50 μl of tetramethylbenzidine (TMB) substrate (KPL) and the absorbance was read at […].
On the technique in general: In an ELISA, binding on a coated surface is turned into a signal by an enzyme label.

Test [2] addresses T2, HMGB1 C-terminal tail peptide 188-215 (human, biotinylated).
T2 peptide: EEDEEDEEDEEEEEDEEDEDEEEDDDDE
In words: ELISA, biotinylated peptides on avidin plate. The protocol:
as §1

Test [3] deals with T3, HMG1 B Box peptide amino acids 91-169.
T3 construct: also called HMG1 peptide 91-169
T3 peptide: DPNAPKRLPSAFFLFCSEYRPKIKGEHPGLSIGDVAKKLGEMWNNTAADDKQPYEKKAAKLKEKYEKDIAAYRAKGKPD
In words: ELISA, wells coated with HMG1 B Box peptide 91-169 at 10 ug/ml, anti-human IgG-HRP, OD 450. The protocol: as §1

The target of test [4] is T4, 106-123 (also: biotinylated, site not given here).
T4 construct: Bar group label on the sheet
T4 peptide: CSEYRPKIKGEHPGLSIG
Description: ELISA on biotinylated HMGB1 peptides captured on NeutrAvidin, antibody in serial dilution from 10 ug/ml, anti-human IgG-HRP, OD 450. The protocol: as §1

In test [5] the target is T5, recombinant HMG1 purified from E. coli as a calmodulin binding protein (CBP) fusion protein (human, UniProt A9RA84 1-215 (Papio anubis entry)).
T5 sequence: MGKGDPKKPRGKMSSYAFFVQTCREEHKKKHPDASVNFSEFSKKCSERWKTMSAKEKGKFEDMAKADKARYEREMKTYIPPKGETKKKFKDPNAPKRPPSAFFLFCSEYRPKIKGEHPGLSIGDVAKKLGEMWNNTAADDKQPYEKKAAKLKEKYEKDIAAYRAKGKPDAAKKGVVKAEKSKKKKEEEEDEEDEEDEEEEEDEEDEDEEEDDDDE
Description: cell-based or functional assay.

Test [6] deals with T6, HMGB1 peptide 166-183 (UniProt P09429 166-183, also: biotinylated, site not given here).
T6 peptide (looked up): GKPDAAKKGVVKAEKSKK
Description: ELISA on biotinylated HMGB1 peptides captured on NeutrAvidin, antibody in serial dilution from 10 ug/ml, anti-human IgG-HRP, OD 450. The protocol: as §1

Test [7] addresses T5, recombinant HMG1 purified from E. coli …. Description: sandwich ELISA: antibody captured on anti-human IgG Fc, rHMG1 2 ug/ml in solution, mouse anti-HMGB1 and anti-mouse IgG-HRP, OD 450. The protocol: Sandwich ELISA (soluble HMG1): Immunoplates (EIA/RIA plate, High binding, Costar) were coated with anti human IgG Fc at 10 μg/ml in PBS (pH 7.2) and incubated at 4° C. overnight. The coating reagent was removed and the plates were rinsed briefly with PBS. The plates were then blocked with 4% milk for 1 hour at 37° C. and rinsed with PBS. The anti-HMG1 antibodies were diluted in 4% milk. For serial dilutions, the antibodies were used at a starting concentration of 20 μg/ml. The diluted anti-HMG1 antibodies were then added into plate and incubated for 1 hr at 37° C. The plate was then washed 10 times with PBST (PBS/0.1% tween 20) and incubate with antigen (HMGB1, 2 μg/ml; or 0.7 μg/ml for native HMGB1) in 4% milk and incubated at 37° C. for 1 h. The plate was then wash 10 times and incubated with mouse anti-HMGB1, 1 μg/ml in 4% milk at 37° C. for 1 h. The plate was washed 10 times and incubated with anti-mouse IgG-HRP at 1:1000 at 37° C. for 1 h. The plate was then washed and developed. HRP activity was detected with Sureblue HRP substrate (KPL). Plates were read at 450 nm using a Kinetic Microplate Reader (Molecular Devices).

Test [8] addresses T3, HMG1 B Box peptide amino acids 91-169. In words: ELISA, wells coated with HMG1 B Box peptide 91-169 at 10 ug/ml. The procedure, abridged:
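Biotinylated peptides captured on avidin-coated wells (1% BSA block, 30 min, room temperature), then antibodies added in serial dilution from 10 μg/ml; for the coated-peptide format, plates blocked with 4% milk/PBS 1 h at 37 °C. Bound antibody detected with anti-human IgG-HRP and TMB, absorbance at 450 nm.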

The target of test [9] is T7, HMGB1 in sera of septic peritonitis mice (mouse, UniProt P63158 1-215).
T7 construct: also called HMGB1 from sepsis sera (ELISA); peritonitis sera
T7 sequence (looked up): T5 sequence with E189D, D202E
Description: sandwich ELISA: antibody (10 ug/ml) captured on anti-human Fc, sample added, mouse anti-HMGB1 and anti-mouse-HRP, OD 450. The protocol: HMGB1 Detection from Biological Samples: For detection of the HMGB1 from AA joint homogenates and peritonitis sera, sandwich ELISA was performed. Goat anti-human Fc (Pierce) 14 μg/ml in PBS was coated on Immunlon IV microtiter plate over night at 4° C. After washing and blocking with 5% milk 1 hr at room temperature, G4 or S6 in blocking buffer (10 μg/ml) were added to each well of the blocked plate. The plate was washed 1 hour later and 25 μl of AIA homogenates containing 0.8 μg/ml of HMGB1 or peritonitis sera containing 7 μg/ml of HMGB1 in 0.5 M NaCl/blocking buffer were added to the wells at two fold serial dilutions. The unbound materials were removed by washing one hr after incubation. The bound HMGB1 was detected by a mouse anti-HMGB1 antibody at 2 μg/ml followed by an anti-mouse antibody conjugated with horseradish peroxidase. Mouse peritonitis sera was obtained by heart puncture 7 days after infection with heat killed staphylococcus aureus. Joint lysate was prepared from the whole paw of AIA rats as described in Example 6 below. Human sepsis sera were purchased from a commercial source.

B1: anti-HMG1 antibody G4 (antibody, V domains shown)
VH: EVQLLESGGGLVQPGGSLRLSCAASGFTFSWYDMTWVRQAPGKGLEWVSSISPSGGYTKYADSVKGRFTISRDNSKNTLYLQMNSLRAEDTAVYYCTTEFYDYLDVWGKGTTVTVSS
VL: DIQMTQSPGTLSLSPGEGATLSCRASQSVSSTYLAWYQQKPGQAPRLLIYEASKRATGTPARFSGSGSGTDFTLSISSLEPEDFAVYYCQHRHNWPPQWTFGQGTKVEVK
notes: also called ATCC PTA-6258
B1: the binding result in [1] was “binds”. Further, the binding result in test [2] is “binds”. Also, in test [3], the binding result was “binds”. The binding result in test [4] is “binds”. Further, in test [5], the “IC50, inhibition of rHMG1 stimulated IL-1β release from human PBMC” value is 5.01 µg/mL; the “IC50, inhibition of rHMG1 stimulated IL-6 release from human PBMC” value came to 0.9 nM; the “IC50, inhibition of rHMG1 stimulated IL-12 release from human PBMC” value turned out to be 0.715 µg/mL; the “IC50, inhibition of rHMG1 stimulated TNF-α release from human PBMC” value is 5.51 µg/mL.

B2: anti-HMG1 antibody S16 (antibody, V domains shown)
VH: EVQLLESGGGLVQPGGSLRLSCAASGFTFSWYSMLWVRQAPGKGLEWVSYISPSGGFTNYADSVKGRFTISRDNSKNTLYLQMNSLRAEDTAVYYCARWDYNSGWYYDHWGQGTLVTVSS
VL: DIQMTQSPDTLSLSPGERATLSCRASQSVNSRNLAWYQQKPGQAPRLLIYGASTRATGIPDRFSGSVSGTEFTLTISSLQPDDFATYYCQQYNSYFTFGQGTKLEIK
notes: also called ATCC PTA-6259
One may read the EC50 (read off the curve) as the concentration at which the effect is half-maximal. On to B2, for which, in test [3], the binding result is “binds”. For the same molecule, the binding result in test [6] is listed as “binds”. Also, in test [7], the “EC50 (read off the curve)” value was approximately 0.08 µg/mL. In [5], the “IC50, inhibition of rHMG1 stimulated IL-1β release from human PBMC” value came to 6.05 µg/mL; the “IC50, inhibition of rHMG1 stimulated IL-6 release from human PBMC” value is 0.56 nM; the “IC50, inhibition of rHMG1 stimulated IL-12 release from human PBMC” value is 1.24 µg/mL; the “IC50, inhibition of rHMG1 stimulated TNF-α release from human PBMC” value is 1.44 µg/mL.

B3: anti-HMG1 antibody S6 (antibody, V domains shown)
VH: EVQLLESGGGLVQPGGSLRLSCAASGFTFSWYDMSWVRQAPGKGLEWVSRISPSGGYTMYADSVKGRFTISRDNSKNTLYLQMNSLRAEDTAVYYCARLEVGATSGGTAFDIWGQGTMVTVSS
VL: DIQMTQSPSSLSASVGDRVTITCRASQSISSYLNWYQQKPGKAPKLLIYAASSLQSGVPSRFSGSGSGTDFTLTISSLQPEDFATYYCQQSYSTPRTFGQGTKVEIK
notes: also called ATCC PTA-6143
Consider B3, for which the binding result in test [8] is on record as “no binding (tested: 10 ug/ml (log 1.00))”. Further, in test [5], the “IC50, inhibition of HMG1 stimulated NO release from macrophages” value is 4.15 µg/mL; the “IC50, inhibition of rHMG1 stimulated IL-1β release from human PBMC” value amounted to 0.0232 µg/mL; the “IC50, inhibition of rHMG1 stimulated IL-6 release from human PBMC” value turned out to be 0.174 nM; the “IC50, inhibition of rHMG1 stimulated TNF-α release from human PBMC” value was 0.0182 µg/mL. The binding result in test [9] is recorded as “binds”.

B4: anti-HMG1 antibody S2 (antibody, V domains shown)
VH: EVQLLESGGGLVQPGGSLRLSCAASGFTFSGYMMVWVRQAPGKGLEWVSRISPSGGQTGYADSVKGRFTISRDNSKNTLYLQMNSLRAEDTAVYYCAREEGGSYGAFDIWGQGTMVTVSS
VL: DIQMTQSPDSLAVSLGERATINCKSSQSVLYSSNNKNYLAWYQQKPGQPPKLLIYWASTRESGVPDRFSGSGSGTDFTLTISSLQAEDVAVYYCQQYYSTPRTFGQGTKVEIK
notes: also called ATCC PTA-6142
As to B4, the binding result in test [8] is reported as “no binding (tested: 10 ug/ml (log 1.00))”. For the same molecule, the concentration for a half-maximal effect (EC50 (read off the curve)) in test [7] is approximately 0.08 µg/mL. In test [5], the “IC50, inhibition of rHMG1 stimulated IL-1β release from human PBMC” value worked out at 0.22 µg/mL; the “IC50, inhibition of rHMG1 stimulated IL-6 release from human PBMC” value was determined as 0.163 nM; the “IC50, inhibition of rHMG1 stimulated TNF-α release from human PBMC” value was determined as 0.0642 µg/mL.
